Source: US20200062863A1 (CSL BEHRING, published 2020)

Assays:
human Factor XIIa-alpha = biological target: T1, human Factor XIIa-alpha (human, UniProt P00748 20-615); assay: cell-based or functional assay
T1 sequence: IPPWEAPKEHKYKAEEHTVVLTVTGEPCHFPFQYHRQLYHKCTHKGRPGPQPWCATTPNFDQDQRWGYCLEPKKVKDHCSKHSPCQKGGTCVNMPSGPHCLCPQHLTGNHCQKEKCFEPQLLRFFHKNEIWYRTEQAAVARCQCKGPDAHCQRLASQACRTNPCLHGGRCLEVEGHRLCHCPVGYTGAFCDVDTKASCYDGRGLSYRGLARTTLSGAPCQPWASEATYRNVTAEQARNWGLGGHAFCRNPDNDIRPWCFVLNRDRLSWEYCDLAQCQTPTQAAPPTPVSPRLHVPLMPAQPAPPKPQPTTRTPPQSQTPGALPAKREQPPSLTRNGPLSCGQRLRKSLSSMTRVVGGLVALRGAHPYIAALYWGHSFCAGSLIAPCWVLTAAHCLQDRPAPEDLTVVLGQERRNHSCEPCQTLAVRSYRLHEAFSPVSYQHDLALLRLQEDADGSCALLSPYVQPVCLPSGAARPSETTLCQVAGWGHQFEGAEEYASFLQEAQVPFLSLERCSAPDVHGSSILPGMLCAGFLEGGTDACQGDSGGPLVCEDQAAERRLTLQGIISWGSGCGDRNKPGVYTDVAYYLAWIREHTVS

human Factor XIIa-beta [1] = biological target: T2, human Factor XIIa-beta (human, UniProt P00748 354-615, limits assumed); assay: SPR (Biacore), purified IgG captured on anti-human IgG, FXIIa beta 0-40 nM, 1:1 fit, 25 C
T2 construct: Bought from Enzyme Research Laboratories; also called FXIIa beta; FXIIa-beta
T2 sequence: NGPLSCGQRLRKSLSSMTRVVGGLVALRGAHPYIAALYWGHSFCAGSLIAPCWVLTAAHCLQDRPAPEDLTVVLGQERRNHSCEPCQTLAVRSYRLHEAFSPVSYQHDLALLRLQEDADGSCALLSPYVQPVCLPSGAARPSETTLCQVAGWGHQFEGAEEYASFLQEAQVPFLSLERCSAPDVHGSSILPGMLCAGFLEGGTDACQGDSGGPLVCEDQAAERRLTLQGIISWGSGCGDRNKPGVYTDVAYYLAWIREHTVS

[2] = biological target: T3, Mu-FXII I438A mutant with C-terminal 8xHis-tag (mouse, UniProt Q80YC5 20-597); assay: Western blot, non-reducing, 3F7 mAb detected with anti-human IgG-FITC
T3 construct: Culture supernatant; also called mutant f) I438A
T3 sequence: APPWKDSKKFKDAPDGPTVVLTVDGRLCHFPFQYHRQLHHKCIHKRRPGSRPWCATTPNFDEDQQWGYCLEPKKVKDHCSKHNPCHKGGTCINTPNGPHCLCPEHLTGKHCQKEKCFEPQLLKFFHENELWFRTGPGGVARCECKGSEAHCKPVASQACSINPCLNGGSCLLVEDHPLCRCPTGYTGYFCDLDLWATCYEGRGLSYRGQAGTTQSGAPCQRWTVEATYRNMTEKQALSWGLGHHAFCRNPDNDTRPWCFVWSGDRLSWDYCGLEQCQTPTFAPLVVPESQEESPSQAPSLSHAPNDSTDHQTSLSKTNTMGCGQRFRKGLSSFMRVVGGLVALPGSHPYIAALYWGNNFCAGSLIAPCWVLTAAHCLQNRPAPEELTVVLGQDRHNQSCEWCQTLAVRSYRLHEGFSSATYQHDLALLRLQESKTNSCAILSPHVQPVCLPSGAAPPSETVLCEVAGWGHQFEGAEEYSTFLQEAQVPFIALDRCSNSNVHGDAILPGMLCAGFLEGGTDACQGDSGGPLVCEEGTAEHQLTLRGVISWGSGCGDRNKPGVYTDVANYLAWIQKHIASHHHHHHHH
Description: (§1) Proteins were then transferred electrophoretically onto nitrocellulose filters and blocked for 1 hour in 5% Milk powder in Tris-buffered saline with 0.05% Tween-20 (TTBS). Filters were then incubated for 1 hour with either 3F7 mAb or an anti-His mAb 3H3 (both at […] in TTBS with 5% Milk powder), washed thoroughly with TTBS, then incubated for a further hour with anti-human IgG-FITC or anti-mouse IgG-FITC, respectively (Millipore, USA; both at 0.25 mg/ml in TTBS with 5% Milk powder). Following further washing of membranes in TTBS, Ab-FITC bound proteins were visualized using a Typhoon variable mode analyzer (GE Healthcare, USA).

[3] = biological target: T4, Mu-FXII N398K mutant with C-terminal 8xHis-tag (mouse, UniProt Q80YC5 20-597); assay: as above
T4 construct: Mouse to rat residue change; culture supernatant; also called mutant c) N398K
T4 sequence: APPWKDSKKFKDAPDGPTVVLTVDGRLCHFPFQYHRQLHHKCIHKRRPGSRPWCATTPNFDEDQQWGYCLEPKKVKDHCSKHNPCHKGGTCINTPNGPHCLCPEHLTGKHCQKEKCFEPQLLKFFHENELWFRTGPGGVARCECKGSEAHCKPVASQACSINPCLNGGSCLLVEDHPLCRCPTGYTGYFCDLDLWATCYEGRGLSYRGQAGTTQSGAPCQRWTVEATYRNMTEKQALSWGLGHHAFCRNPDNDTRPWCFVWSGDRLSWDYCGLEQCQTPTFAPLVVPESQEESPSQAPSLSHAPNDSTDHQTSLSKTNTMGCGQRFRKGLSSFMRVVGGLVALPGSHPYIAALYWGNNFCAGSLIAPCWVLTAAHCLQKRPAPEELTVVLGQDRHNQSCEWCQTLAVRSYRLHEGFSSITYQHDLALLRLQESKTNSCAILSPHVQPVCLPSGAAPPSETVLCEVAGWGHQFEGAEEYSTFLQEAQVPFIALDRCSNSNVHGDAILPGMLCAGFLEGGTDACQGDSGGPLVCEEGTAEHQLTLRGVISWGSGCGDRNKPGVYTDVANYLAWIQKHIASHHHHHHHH
Description: as §1

human Factor XIIa-beta [4] = biological target: T2, human Factor XIIa-beta; assay: SPR (Biacore), KD against parental 3F7
human FXIIa = biological target: T5, human FXIIa (human, UniProt P00748 20-615, limits assumed); assay: cell-based or functional assay
T5 sequence: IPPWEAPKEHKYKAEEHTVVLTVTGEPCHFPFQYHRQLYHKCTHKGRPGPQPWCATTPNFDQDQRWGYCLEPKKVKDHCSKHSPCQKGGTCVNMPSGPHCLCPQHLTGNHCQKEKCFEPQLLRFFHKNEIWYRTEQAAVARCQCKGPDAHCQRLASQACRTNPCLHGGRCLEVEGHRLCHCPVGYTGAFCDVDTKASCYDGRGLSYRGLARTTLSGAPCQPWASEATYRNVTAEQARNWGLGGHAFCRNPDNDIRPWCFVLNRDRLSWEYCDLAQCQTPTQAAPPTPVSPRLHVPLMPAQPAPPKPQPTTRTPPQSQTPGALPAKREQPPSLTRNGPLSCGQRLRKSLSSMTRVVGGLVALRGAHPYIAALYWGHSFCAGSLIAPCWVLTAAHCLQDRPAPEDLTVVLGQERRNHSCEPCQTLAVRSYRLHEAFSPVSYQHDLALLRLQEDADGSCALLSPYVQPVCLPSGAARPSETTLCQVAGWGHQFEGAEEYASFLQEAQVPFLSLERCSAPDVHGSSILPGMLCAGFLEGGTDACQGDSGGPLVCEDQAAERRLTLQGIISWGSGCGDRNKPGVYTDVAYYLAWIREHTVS

B1: monoclonal antibody 3F7 (fully human IgG4/lambda) (antibody, V domains shown)
VH: EVQLLESGGGLVQPGGSLRLSCAASGFTFSKYIMQWVRQAPGKGLEWVSGIRPSGGTTVYADSVKGRFTISRDNSKNTLYLQMNSLRAEDTAVYYCARALPRSGYLISPHYYYYALDVWGQGTTVTVSS
VL: QSELTQPPSASGTPGQRVTISCSGSSSNIGRNYVYWYQQVPGTAPKLLIYSNNQRPSGVPDRFSGSKSGTSASLVISGLRSEDEADYYCAAWDASLRGVFGGGTKLTVLG
notes: also called 3F7 mAb; MAb 3F7
- % Inhibition, ratio FXIIa-alpha:Antibody 1:0.1 (human Factor XIIa-alpha): 35.5%
- % Inhibition, ratio FXIIa-alpha:Antibody 1:0.1 (second 3F7 block) (human Factor XIIa-alpha): 38.3%
- % Inhibition, ratio FXIIa-alpha:Antibody 1:0.2 (human Factor XIIa-alpha): 62.5%
- % Inhibition, ratio FXIIa-alpha:Antibody 1:0.2 (second 3F7 block) (human Factor XIIa-alpha): 66.8%
- % Inhibition, ratio FXIIa-alpha:Antibody 1:0.5 (human Factor XIIa-alpha): 91.9%
- % Inhibition, ratio FXIIa-alpha:Antibody 1:0.5 (second 3F7 block) (human Factor XIIa-alpha): 91.4%
- % Inhibition, ratio FXIIa-alpha:Antibody 1:1 (human Factor XIIa-alpha): 97.9%
- % Inhibition, ratio FXIIa-alpha:Antibody 1:1 (second 3F7 block) (human Factor XIIa-alpha): 96.1%
- % Inhibition, ratio FXIIa-alpha:Antibody 1:2 (human Factor XIIa-alpha): 100%
- % Inhibition, ratio FXIIa-alpha:Antibody 1:2 (second 3F7 block) (human Factor XIIa-alpha): 100%
- % Inhibition, ratio FXIIa-alpha:Antibody 1:5 (human Factor XIIa-alpha): 100%
- % Inhibition, ratio FXIIa-alpha:Antibody 1:5 (second 3F7 block) (human Factor XIIa-alpha): 100%
- % Inhibition, ratio FXIIa-alpha:Antibody 1:10 (human Factor XIIa-alpha): 100%
- % Inhibition, ratio FXIIa-alpha:Antibody 1:10 (second 3F7 block) (human Factor XIIa-alpha): 100%
- Kd (human Factor XIIa-beta [1]): 6.2 nM
- binding result [2]: no binding
- binding result [3]: no binding
- Fold affinity improvement (human Factor XIIa-beta [4]): 1 fold
- potency in the FXIIa amidolytic activity assay, against OT-2 (human FXIIa): ~2 fold
